Source: paper PMC7813835, “Structure of SRSF1 RRM1 bound to RNA reveals an unexpected bimodal mode of interaction and explains its involvement in SMN1 exon7 splicing”

Assays:
[1] = biological target: T1, SRSF1 RRM1+2 YS (RRM12 YS) (human, UniProt Q07955 1-196, Y37S;Y72S); assay: NMR; saturation at 1:1; NMR buffer: 50 mM L-Glu, 50 mM L-Arg, 0.05% beta-mercaptoethanol, 20 mM Na2HPO4 pH 7 (RRM1+2: plus 150 mM KCl, 1.5 mM MgCl2, 0.2 mM EDTA); NMR and ITC at 40 C; conditions: protein: recombinant; tags: GB1, His
T1 sequence (Q07955 1-196 Y37S/Y72S): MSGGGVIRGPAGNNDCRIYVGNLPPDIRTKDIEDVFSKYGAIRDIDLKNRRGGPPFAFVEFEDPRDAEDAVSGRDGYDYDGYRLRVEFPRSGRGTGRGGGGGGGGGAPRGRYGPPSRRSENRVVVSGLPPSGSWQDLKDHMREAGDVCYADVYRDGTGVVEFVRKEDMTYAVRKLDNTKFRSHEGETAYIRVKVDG

[2] = biological target: T1, SRSF1 RRM1+2 YS (RRM12 YS); assay: ITC; NMR buffer: 50 mM L-Glu, 50 mM L-Arg, 0.05% beta-mercaptoethanol, 20 mM Na2HPO4 pH 7 (RRM1+2: plus 150 mM KCl, 1.5 mM MgCl2, 0.2 mM EDTA); NMR and ITC at 40 C; conditions: protein: recombinant; tags: GB1, His
SRSF1 RRM1 YS = SRSF1 RRM1 YS (human, UniProt Q07955 1-97, Y37S;Y72S); assay: as above; conditions: protein: recombinant; tags: N-terminal GB1-6xHis
Chain of SRSF1 RRM1 YS (Q07955 1-97 Y37S/Y72S): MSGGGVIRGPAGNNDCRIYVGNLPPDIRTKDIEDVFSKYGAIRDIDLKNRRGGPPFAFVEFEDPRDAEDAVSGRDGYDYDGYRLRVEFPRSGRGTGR

[3] = biological target: T2, SRSF1 RRM1 (YS or WT not stated) (human, UniProt Q07955 1-97); assay: NMR; NMR buffer: 50 mM L-Glu, 50 mM L-Arg, 0.05% beta-mercaptoethanol, 20 mM Na2HPO4 pH 7 (RRM1+2: plus 150 mM KCl, 1.5 mM MgCl2, 0.2 mM EDTA); NMR and ITC at 40 C; conditions: protein: recombinant; tags: N-terminal GB1-6xHis
T2 sequence (Q07955 1-97): as the sequence (Q07955 1-97 Y37S/Y72S) above, with S37Y, S72Y counted along it

SRSF1 RRM1 WT = SRSF1 RRM1 WT (human, UniProt Q07955 1-97); assay: NMR; saturation at 1:1; NMR buffer: 50 mM L-Glu, 50 mM L-Arg, 0.05% beta-mercaptoethanol, 20 mM Na2HPO4 pH 7 (RRM1+2: plus 150 mM KCl, 1.5 mM MgCl2, 0.2 mM EDTA); NMR and ITC at 40 C; conditions: protein: recombinant; tags: N-terminal GB1-6xHis
Chain of SRSF1 RRM1 WT (Q07955 1-97): as the sequence (Q07955 1-97 Y37S/Y72S) above, with S37Y, S72Y counted along it

[4] = biological target: T2, SRSF1 RRM1 (YS or WT not stated); assay: NMR solution structure; 1:1 complex; NMR buffer: 50 mM L-Glu, 50 mM L-Arg, 0.05% beta-mercaptoethanol, 20 mM Na2HPO4 pH 7 (RRM1+2: plus 150 mM KCl, 1.5 mM MgCl2, 0.2 mM EDTA); NMR and ITC at 40 C; conditions: protein: recombinant; tags: N-terminal GB1-6xHis
[5] = biological target: T1, SRSF1 RRM1+2 YS (RRM12 YS); assay: ITC; 143 in the reviewer reply; NMR buffer: 50 mM L-Glu, 50 mM L-Arg, 0.05% beta-mercaptoethanol, 20 mM Na2HPO4 pH 7 (RRM1+2: plus 150 mM KCl, 1.5 mM MgCl2, 0.2 mM EDTA); NMR and ITC at 40 C; conditions: protein: recombinant; tags: GB1, His

B1: UCAUUGGAUUUUUCAU (ssRNA)
RNA: UCAUUGGAUUUUUCAU
binding result [1]: binds

B2: UGGAUUUUUCAU (ssRNA)
RNA: UGGAUUUUUCAU
Kd [2]: 0.055 µM

B3: CCCCCC RNA (polyC) (ssRNA)
RNA: CCCCCC
Kd (SRSF1 RRM1 YS): 11 µM

B4: SMN2 exon7 ESE1 counterpart (ssRNA)
RNA: UUUAGA
binding result [3]: no binding

B5: AACAAA RNA (ssRNA)
RNA: AACAAA
Kd (SRSF1 RRM1 YS): 21 µM
binding result (SRSF1 RRM1 WT): binds
binding result [4]: binds

B6: UUUUUGGAU (ssRNA)
RNA: UUUUUGGAU
Kd [2]: 0.164 µM

B7: polyG (NMR, length not stated) (ssRNA)
RNA: GGGGGG
binding result [3]: no binding

B8: polyU (NMR, length not stated) (ssRNA)
RNA: UUUUUU
binding result [3]: no binding

B9: AACGAA RNA (ssRNA)
RNA: AACGAA
Kd (SRSF1 RRM1 YS): 25 µM
binding result [3]: binds

B10: polyA (NMR, length not stated) (ssRNA)
RNA: AAAAAA
binding result [3]: no binding

B11: SMN1 exon7 ESE1 (ssRNA)
RNA: UUCAGA
binding result [3]: binds

B12: polyC (NMR, length not stated) (ssRNA)
RNA: CCCCCC
binding result [3]: binds

B13: UGGAUUUUUUUU (ssRNA)
RNA: UGGAUUUUUUUU
Kd [5]: 0.145 µM

B14: UUUUUU RNA (polyU) (ssRNA)
RNA: UUUUUU
binding result (SRSF1 RRM1 YS): no binding
